Test results: paper PMC5116672

Tests used:
[1] = anti-EGFP immunoblot of total lysates; mRNA unchanged; details: glycan lost; control: CD147(WT)-EGFP
[2] = confocal immunofluorescence with ER-Tracker, stable cells; details: glycan lost; control: CD147(WT)-EGFP
[3] = immunofluorescence colocalisation with chaperones; details: glycan lost; control: CD147(WT)-EGFP
[4] = protein accumulation on Gp78 siRNA, immunoblot; details: glycan lost; control: CD147(WT)-EGFP
[5] = immunofluorescence with CNX, 12 h castanospermine; details: glycan changed form
[6] = immunofluorescence, aggregation with GRP78, 24 h castanospermine; details: glycan changed form; control: CD147(WT)-EGFP cells without CAS
[7] = confocal immunofluorescence with ER-Tracker, transient double mutants; details: glycan lost; control: CD147(WT)-EGFP

| Protein | localisation_or_trafficking [2] | localisation_or_trafficking [7] | further results |
| --- | --- | --- | --- |
| CD147: N152Q (protein) parent chain: MAAALFVLLGFALLGTHGASGAAGTVFTTVEDLGSKILLTCSLNDSATEVTGHRWLKGGVVLKEDALPGQKTEFKVDSDDQWGEYSCVFLPEPMGTANIQLHGPPRVKAVKSSEHINEGETAMLVCKSESVPPVTDWAWYKITDSEDKALMNGSESRFFVSSSQGRSELHIENLNMEADPGQYRCNGTSSKGSDQAIITLRVRSHLAALWPFLGIVAEVLVLVTIIFIYEKRRKPEDVLDDDDAGSAPLKSSGQHQNDKGKNVRQRNSS | changes |  | expression_or_secretion [1]: decreases; localisation_or_trafficking [3]: increases; degradation_or_half_life [4]: decreases |
| CD147: castanospermine (CAS) 12 h (protein) parent chain: MAAALFVLLGFALLGTHGASGAAGTVFTTVEDLGSKILLTCSLNDSATEVTGHRWLKGGVVLKEDALPGQKTEFKVDSDDQWGEYSCVFLPEPMGTANIQLHGPPRVKAVKSSEHINEGETAMLVCKSESVPPVTDWAWYKITDSEDKALMNGSESRFFVSSSQGRSELHIENLNMEADPGQYRCNGTSSKGSDQAIITLRVRSHLAALWPFLGIVAEVLVLVTIIFIYEKRRKPEDVLDDDDAGSAPLKSSGQHQNDKGKNVRQRNSS |  |  | localisation_or_trafficking ([5]; control: CD147(WT)-EGFP cells without CAS): changes |
| CD147: castanospermine (CAS) 24 h (protein) parent chain: MAAALFVLLGFALLGTHGASGAAGTVFTTVEDLGSKILLTCSLNDSATEVTGHRWLKGGVVLKEDALPGQKTEFKVDSDDQWGEYSCVFLPEPMGTANIQLHGPPRVKAVKSSEHINEGETAMLVCKSESVPPVTDWAWYKITDSEDKALMNGSESRFFVSSSQGRSELHIENLNMEADPGQYRCNGTSSKGSDQAIITLRVRSHLAALWPFLGIVAEVLVLVTIIFIYEKRRKPEDVLDDDDAGSAPLKSSGQHQNDKGKNVRQRNSS |  |  | stability_or_folding [6]: decreases |
| CD147: castanospermine (CAS) 12 h on N44/186Q (protein) parent chain: MAAALFVLLGFALLGTHGASGAAGTVFTTVEDLGSKILLTCSLNDSATEVTGHRWLKGGVVLKEDALPGQKTEFKVDSDDQWGEYSCVFLPEPMGTANIQLHGPPRVKAVKSSEHINEGETAMLVCKSESVPPVTDWAWYKITDSEDKALMNGSESRFFVSSSQGRSELHIENLNMEADPGQYRCNGTSSKGSDQAIITLRVRSHLAALWPFLGIVAEVLVLVTIIFIYEKRRKPEDVLDDDDAGSAPLKSSGQHQNDKGKNVRQRNSS |  |  | localisation_or_trafficking ([5]; control: CD147(N44/186Q)-EGFP cells without CAS): changes |
| CD147: N44/152/186Q (protein) parent chain: MAAALFVLLGFALLGTHGASGAAGTVFTTVEDLGSKILLTCSLNDSATEVTGHRWLKGGVVLKEDALPGQKTEFKVDSDDQWGEYSCVFLPEPMGTANIQLHGPPRVKAVKSSEHINEGETAMLVCKSESVPPVTDWAWYKITDSEDKALMNGSESRFFVSSSQGRSELHIENLNMEADPGQYRCNGTSSKGSDQAIITLRVRSHLAALWPFLGIVAEVLVLVTIIFIYEKRRKPEDVLDDDDAGSAPLKSSGQHQNDKGKNVRQRNSS | changes |  | expression_or_secretion [1]: decreases |
| CD147: N44Q (protein) parent chain: MAAALFVLLGFALLGTHGASGAAGTVFTTVEDLGSKILLTCSLNDSATEVTGHRWLKGGVVLKEDALPGQKTEFKVDSDDQWGEYSCVFLPEPMGTANIQLHGPPRVKAVKSSEHINEGETAMLVCKSESVPPVTDWAWYKITDSEDKALMNGSESRFFVSSSQGRSELHIENLNMEADPGQYRCNGTSSKGSDQAIITLRVRSHLAALWPFLGIVAEVLVLVTIIFIYEKRRKPEDVLDDDDAGSAPLKSSGQHQNDKGKNVRQRNSS | changes |  |  |
| CD147: N186Q (protein) parent chain: MAAALFVLLGFALLGTHGASGAAGTVFTTVEDLGSKILLTCSLNDSATEVTGHRWLKGGVVLKEDALPGQKTEFKVDSDDQWGEYSCVFLPEPMGTANIQLHGPPRVKAVKSSEHINEGETAMLVCKSESVPPVTDWAWYKITDSEDKALMNGSESRFFVSSSQGRSELHIENLNMEADPGQYRCNGTSSKGSDQAIITLRVRSHLAALWPFLGIVAEVLVLVTIIFIYEKRRKPEDVLDDDDAGSAPLKSSGQHQNDKGKNVRQRNSS | changes |  |  |
| CD147: N44/186Q (protein) parent chain: MAAALFVLLGFALLGTHGASGAAGTVFTTVEDLGSKILLTCSLNDSATEVTGHRWLKGGVVLKEDALPGQKTEFKVDSDDQWGEYSCVFLPEPMGTANIQLHGPPRVKAVKSSEHINEGETAMLVCKSESVPPVTDWAWYKITDSEDKALMNGSESRFFVSSSQGRSELHIENLNMEADPGQYRCNGTSSKGSDQAIITLRVRSHLAALWPFLGIVAEVLVLVTIIFIYEKRRKPEDVLDDDDAGSAPLKSSGQHQNDKGKNVRQRNSS |  | no change |  |
| CD147: N44/152Q (protein) parent chain: MAAALFVLLGFALLGTHGASGAAGTVFTTVEDLGSKILLTCSLNDSATEVTGHRWLKGGVVLKEDALPGQKTEFKVDSDDQWGEYSCVFLPEPMGTANIQLHGPPRVKAVKSSEHINEGETAMLVCKSESVPPVTDWAWYKITDSEDKALMNGSESRFFVSSSQGRSELHIENLNMEADPGQYRCNGTSSKGSDQAIITLRVRSHLAALWPFLGIVAEVLVLVTIIFIYEKRRKPEDVLDDDDAGSAPLKSSGQHQNDKGKNVRQRNSS |  | changes |  |
| CD147: N152/186Q (protein) parent chain: MAAALFVLLGFALLGTHGASGAAGTVFTTVEDLGSKILLTCSLNDSATEVTGHRWLKGGVVLKEDALPGQKTEFKVDSDDQWGEYSCVFLPEPMGTANIQLHGPPRVKAVKSSEHINEGETAMLVCKSESVPPVTDWAWYKITDSEDKALMNGSESRFFVSSSQGRSELHIENLNMEADPGQYRCNGTSSKGSDQAIITLRVRSHLAALWPFLGIVAEVLVLVTIIFIYEKRRKPEDVLDDDDAGSAPLKSSGQHQNDKGKNVRQRNSS |  | changes |  |
